± gives the uncertainty stated by the source.
Experiment: amyloid nucleation score (Sup35N fusion, yeast selection) (log enrichment); library NNK2; higher = more nucleation; inactive = no reads after selection
Procedure, shortened: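 Three technical output replicates were used for random libraries. Psi-negative yeast expressing peptides of 20 random codons fused to Sup35N were induced with 100 μM copper sulfate for 24 hours and grown 7 days at 30°C on medium lacking adenine and uracil, and input and output plasmid inserts were Illumina-sequenced, excluding sequences with under 100 input reads. The nucleation score is the DiMSum log enrichment of output over input reads, centred on the mode score of non-aggregating sequences.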

Substance | amyloid nucleation score
RSTNTRIIKLTKCAGPNRDE | 1.14 ± 0.17
RSVACVDDMHE | 4.916 ± 0.049
RSVVVGGHNLRISTQAILIP | 0.34 ± 0.64
RTDRLCARHLGLFDDTVPET | 0.664 ± 0.21
RTGHTINFVEQPMHTVPMWH | 5.08 ± 0.068
RTGRDFLSSIFFTSK | -1.8 ± 0.41
RTIQMVTSQSLPCFC | 6.196 ± 0.042
RTSGAVDCTHRFFSEWFKGV | inactive
RTVQQIAPVGGHERVKC | -0.175 ± 0.26
RTVRTAAMLTCGW | 0.855 ± 0.48
RTWQCDDWSQYLLVVF | -0.1 ± 1
RTYEMKAMRVASWQSS | 1.9 ± 0.098
RTYEMVIKFSGSLVRAFRVL | -0.068 ± 0.79
RVADVCTQVMRGL | 1.9 ± 0.33
RVASVSYVSVWYEMCQCFRG | 9.503 ± 0.082
RVCMINSYLLVTRCVGDN | 8.387 ± 0.028
RVDFFRFSVQSESWSVLH | 0.334 ± 0.35
RVFLSGSWSTHGNFCRLRNV | -0.449 ± 0.41
RVGCLWFRLYPLYSGFMRSR | -1.08 ± 1
RVGSFG | 0.596 ± 0.4
RVISGSMVETIDEDIVEGVN | -0.332 ± 0.3
RVLRSETYDSFSL | -0.163 ± 0.32
RVMEYEILLIFCI | 0.135 ± 0.65
RVMRVISRPEELAWVA | 0.602 ± 0.29
RVNCSFTDFVDVVIWKGRGN | 5.07 ± 0.089
RVNMDAGVLSVHLEAVGFHM | 4.08 ± 0.057

Substance | amyloid nucleation score
RVNNLLEKEGTSYGEFAYGL | 0.182 ± 0.45
RVPFWFT | -1.2 ± 0.49
RVPGPVHSSCYTAARFFCPM | 1.83 ± 0.14
RVPSSHF | 1 ± 0.47
RVSDRHV | 1.42 ± 0.099
RVSHEHVYLSNFVTPWLCYY | 5.913 ± 0.049
RWARQRAWTRLLNGE | 1.18 ± 0.48
RWCSLDSQSDYSSM | -0.681 ± 1
RWMVHAA | -0.251 ± 0.76
RWTLWFEGRLERLVAIIS | -0.133 ± 1
RWYSYYTQGDFRRFFLGSN | inactive
RYAINCVEAYGLC | -0.387 ± 0.63
RYASDFWILNICAGDIVILL | 8.495 ± 0.054
RYGPIWGYCNKLFWARCTQL | 0.2 ± 0.49
RYISPSQSAQVSGHLRNVQL | 0.689 ± 0.62
RYKKAHSSALRCK | 0.988 ± 0.74
RYLIGNSGNYVNGCVEQALR | -0.365 ± 0.76
RYLNWRVCSNRLPGSEGLWA | 0.323 ± 0.32
RYNHRFKVVLSHNIDLWQGS | 0.689 ± 0.47
RYPIVRTDMYIIVKFI | 0.509 ± 0.81
RYRRFVIGVQWQRLSRG | -0.19 ± 1.1
RYRTMSTRHPAYGVGGLLLM | 0.544 ± 0.36
RYSNMLN | 3.83 ± 0.096
RYVLSMFQLLLTYVQL | 0.561 ± 0.23
RYVTKGLCLL | 1.16 ± 0.47
RYYHLCAI | 0.289 ± 0.8

Substance | amyloid nucleation score
SAADQPKWRSTTSCVPSDVS | 3.74 ± 0.068
SACNARRVPFG | 0.788 ± 0.51
SAHFTIRKELFLKDTRRVV | -0.47 ± 1
SARHDSRVYNWGLFMKYDVN | 4.12 ± 0.084
SARSIERSDYPMINARHHAC | 0.031 ± 0.34
SATEWIISVGGRAWRF | 2.65 ± 0.12
SAVFLLRLCTQIKCMTVR | inactive
SCAHCCHRKVLR | 0.53 ± 0.3
SCALF | -0.679 ± 1.1
SCCMGICGKDLCDGIELKFP | -0.936 ± 1
SCFGNVYGGVVLQAFGGVVS | 0.082 ± 1.1
SCLLWAF | -1.54 ± 1.1
SCLMIIPFVFMFEHYTFEEG | 7.71 ± 0.082
SCRSIRYEWRHDTVGRRSTR | 3.2 ± 0.064
SCSRWWFWRNATLEVLSKVR | 0.697 ± 0.81
SCTALVKEKMRG | 0.48 ± 0.32
SCYLVVFPKIC | inactive
SDAFGRRHSSLAM | 1.56 ± 0.14
SDCFMGANDVMNKLEYGLDA | 0.091 ± 0.22
SDGARLWR | 0.097 ± 1.1
SDIYRSSRLQ | 0.179 ± 0.33
SDMTNS | -1.55 ± 0.64
SDNAEGVSANFFVRPILSVF | -1.47 ± 1.1
SDQQYGCDWVWLGRGPIEVA | 0.252 ± 0.28
SDSGQVVNSLGSKEGIRFFD | -1.17 ± 0.38
SDTFS | 0.68 ± 0.56

Substance | amyloid nucleation score
SDVKYIGMCSCQHSFIMMGM | 0.372 ± 0.36
SDWII | -0.063 ± 0.56
SDYHLFTYTLGINSTLDGRV | -1.3 ± 0.38
SEAYEGFSYSVLQYEP | -0.092 ± 0.36
SEEIGLT | 0.426 ± 0.26
SEFLRKVSFFLFYLFSSGHL | -0.73 ± 0.61
SEFVGSYWGFDLMLGLD | -0.807 ± 1
SELFQLIGILHSNLFGIYMF | -0.427 ± 0.74
SEWSRDRKRVKVSHFA | 0.465 ± 0.17
SEYVCSCYFSGLLNKLRLVE | 0.356 ± 0.43
SEYVLLT | inactive
SFACVSLIFISY | 5.72 ± 0.063
SFFCMKQMLNFL | 0.533 ± 0.35
SFFLFWRFCIGAW | -0.977 ± 0.63
SFFQESHKRIDRVYKYGMGS | -0.96 ± 0.28
SFGYPPVCLLFSHLHRRFLL | 0.237 ± 1
SFKHLT | -0.853 ± 1.1
SFLWCPGG | 0.221 ± 0.33
SFMGLAMHRSLSSCSVRSWY | 0.199 ± 0.53
SFPMLVISVS | 4.7 ± 0.068
SFSILLEDTSS | -0.162 ± 0.76
SFSVYRFVGTLSGYADLGLG | 0.302 ± 0.37
SFTGL | -0.684 ± 0.44
SFWNQKYCA | -0.117 ± 0.4
SGAQA | -0.966 ± 0.78
SGCCR | -0.925 ± 1

Substance | amyloid nucleation score
SGCGCGLGMPTCRRSVRG | 0.631 ± 0.19
SGDGVLVSFSKDSGFQSFGS | 0.673 ± 0.2
SGHTRVGDFSF | 0.158 ± 0.3
SGIHEIFESVFFNTYFRRMT | -0.549 ± 1
SGLEEYLSHLMLQVRFQESR | 0.432 ± 0.57
SGLLSFLTHSLFEFLSNKQW | -0.557 ± 1.1
SGLVVMRLLFLRGY | -0.558 ± 0.54
SGLVWVTN | -0.018 ± 1.1
SGMWSNRDEALSCWRG | 0.29 ± 0.54
SGNIAMFVPSVRWSVRDYCC | 1.06 ± 0.14
SGPRLTYSTLSKICALVQAE | 0.457 ± 0.34
SGSGGSSLLFTIGEQGRRRI | -0.876 ± 0.45
SGSGSTAILGKTSGHVCLAI | 0.713 ± 0.58
SGSRYAIVSYG | -0.139 ± 0.53
SGTMSLLKMLLEYKLLT | -0.678 ± 0.76
SGWVLGYSCRKLLLGGLSRG | 1.48 ± 0.31
SGYWNGVIRTKSNNDTVYVK | -0.395 ± 0.22
SHFVCMWFYYISTWKCS | -0.766 ± 0.48
SHGEKSVDDEGSGIGERWQC | 1.27 ± 0.33
SHRPWVWGQNISMKYRSVLK | 3.7 ± 0.057
SIANLPFISLL | -1.62 ± 0.54
SICASWNRINGIVTKLGWSE | -0.739 ± 0.32
SICRPIMSESWIASPCVLVG | -0.012 ± 0.24
SIGLLTGKWLPSLMVLYLLV | 1.29 ± 0.44
SIGPLLHMCSFVFLEVRIIF | 1.83 ± 0.15
SIHDVVYLGPVVVAKDSSVF | inactive

— the supplement of paper PMC12042874
